In PMC4145799, “Assembly principles of a unique cage formed by hexameric and decameric E. coli proteins” (eLife, 2014):

B1: inducible lysine decarboxylase LdcI (enzyme, Escherichia coli)
chain: MNVIAILNHMGVYFKEEPIRELHRALERLNFQIVYPNDRDDLLKLIENNARLCGVIFDWDKYNLELCEEISKMNENLPLYAFANTYSTLDVSLNDLRLQISFFEYALGAAEDIANKIKQTTDEYINTILPPLTKALFKYVREGKYTFCTPGHMGGTAFQKSPVGSLFYDFFGPNTMKSDISISVSELGSLLDHSGPHKEAEQYIARVFNADRSYMVTNGTSTANKIVGMYSAPAGSTILIDRNCHKSLTHLMMMSDVTPIYFRPTRNAYGILGGIPQSEFQHATIAKRVKETPNATWPVHAVITNSTYDGLLYNTDFIKKTLDVKSIHFDSAWVPYTNFSPIYEGKCGMSGGRVEGKVIYETQSTHKLLAAFSQASMIHVKGDVNEETFNEAYMMHTTTSPHYGIVASTETAAAMMKGNAGKRLINGSIERAIKFRKEIKRLRTESDGWFFDVWQPDHIDTTECWPLRSDSTWHGFKNIDNEHMYLDPIKVTLLTPGMEKDGTMSDFGIPASIVAKYLDEHGIVVEKTGPYNLLFLFSIGIDKTKALSLLRALTDFKRAFDLNLRVKNMLPSLYREDPEFYENMRIQELAQNIHKLIVHHNLPDLMYRAFEVLPTMVMTPYAAFQKELHGMTEEVYLDEMVGRINANMILPYPPGVPLVMPGEMITEESRPVLEFLQMLCEIGAHYPGFETDIHGAYRQADGRYTVKVLKEESKK
notes: Inducible lysine decarboxylase LdcI of Escherichia coli; decamer of two pentameric rings; crystal structure pdb 3N75; also called acid stress-inducible lysine decarboxylase; source: E. coli CF1693 bearing pT7-322-Tetr, from pET22b, purified (Ni-NTA, MonoQ, Superdex S200); not shown: 24 amino acid linker containing 6xHis-tag, C-terminal, kept; copies: 10

Columns and labels:
[1] = target: B1; assay: cryo-EM structure; LdcI–RavA complex, 11 Å; 1.26 mg/ml LdcI mixed with 0.94 mg/ml RavA, 15 min at room temperature, 25 mM Mes pH 6.5, 200 mM NaCl, 3 mM ADP, 0.8 mM PLP, 1 mM DTT; no cross-linking; D5 symmetry imposed; conditions: both partners purified
[2] = target: the molecule itself; assay: as above
[3] = target: the molecule itself; assay: cryo-EM structure; LdcI-LARA complex, 7.5 Å; 7.3 µM LdcI with 73 µM LARA (1:10), 15 min at room temperature, 50 mM Mes pH 6.5, 100 mM NaCl, 0.2 mM PLP, 1 mM DTT, 0.01% glutaraldehyde; D5 symmetry imposed

| Binder | stoichiometry N [1] | stoichiometry N [2] | stoichiometry N [3] |
| --- | --- | --- | --- |
| AAA+ ATPase RavA (enzyme, RavA of Escherichia coli, MoxR family AAA+ ATPase; crystal structure pdb 3NBX; The purification is told for the RavA mutants ('as previously described', El Bakkouri et al., 2010); also called MoxR AAA+ ATPase RavA; source: E. coli BL21-(DE3) Gold pLysS, from p11 plasmid, purified (Ni-NTA, TEV, MonoS, Superdex S200); not shown: 6xHis-tag, N-terminal, cleaved) not shown | 1.5 RavA monomers per LdcI monomer | 6 | – |
| B1 | – | – | 10 |
